Source: the DeepSol protein solubility set

experiment: soluble on expression in E. coli; label from the status in PepcDB or PDB records

Sequence | soluble on expression in E. coli
MSLGKGVRDPGSDGSLRRKELAMIKVEDMMTRHPHTLLRTHTLNDAKHLMEALDIRHVPIVDANKKLLGIVSQRDLLAAQESSLQRSAQGDSLAFETPLFEVMHTDVTSVAPQAGLKESAIYMQKHKIGCLPVVAKDVLVGIITDSDFVTIAINLLELQEESEPDELDEEQEGGSHHHHHH | soluble
KYKLVFLGEQAVGKTSIITRFMYDTFDNNYQSTIGIDFLSKTLYLDEGPVRLQLWDTAGQERFRSLIPSYIRDSAAAIVVYDITNRQSFENTTKWIQDILNERGKDVIIALVGNKTDLGDLRKVTYEEGMQKAQEYNTMFHETSAKAGHNIKVLFKKTASKL | soluble
MSLAKDKDTLDFIRNLCQKRHVCIQSSLAKVSSKKVNEKDVDKFLLYQHFSCNIRNIHHHQILAINRGENLKVLTVKVNISDGVKDEFCRWCIQNRWRPRSFARPELMKILYNSLNDSFKRLIYPLLCREFRAKLTSDAEKESVMMFGRNLRQLLLTSPVPGRTLMGVDPGYKHGCKLAIISPTSQILHTDVVYLHCGQGFREAEKIKTLLLNFNCSTVVIGNGTACRETEAYFADLIMKNYFAPLDVVYCIVSEAGASIYSVSPEANKEMPGLDPNLRSAVSIARRVQDPLAELVKIEPKHIGVGMYQHDVSQTLLKATLDSVVEECVSFVGVDINICSEVLLRHIAGLNANRAKNIIEWREKNGPFINREQLKKVKGLGPKSFQQCAGFIRINQDYIRTFCSQQTETSGQIQGVAVTSSADVEVTNEKQGKKKSKTAVNVLLKPNPLDQTCIHPESYDIAMRFLSSIGGTLYEVGKPEMQQKINSFLEKEGMEKIAERLQTTVHTLQVIIDGLSQPESFDFRTDFDKPDFKRSIVCLEDLQIGTVLTGKVENATLFGIFVDIGVGKSGLIPIRNVTEAKLSKTKKRRSLGLGPGERVEVQVLNIDIPRSRITLDLIRVLEGHHHHHH | soluble
MSLTDLSMPKPPSVLPDKRQVAASFSRAAGSYESVAELQRSVGSELLSRLPAQFSPVRWLDLGSGTGYFSRALDQVFSGSEGIALDIAEGMLRHAQPLGGAQHFVAGDAEHLPLRDQSCGLIFSSLAVQWCADFAAVLREAHRVLQPSGVFAFASLCVGTLYELRDSWQAVDGQVHVNRFRHEDDYRQLCAASGLQVRSLDVCPQVLHYPDVRSLTHELKALGAHNLNPGRPSGLTGRERIKGMVQAYEAFRQEAGLPATYQVVYAVLEKAEGHHHHHH | not soluble
MGSDKIHHHHHHMSMTDTTLAETEILLAQPRGFCAGVDRAIEIVERAIKLHGSPIYVRHEIVHNAYVVEDLRKKGAIFIERLEEVPPGNTVIFSAHGVSKAVRSEAEIRGLRVYDATCPLVTKVHIEVAKMRQDGFDIVMIGHKGHPEVEGTMGQAGEGMHLVEDIEDVQALQLADPERIAFVTQTTLSVDDAAQIIAALKAKYPSIREPKKQDICYATQNRQDAVKFMAPQCDVVIVVGSPNSSNSNRLRELAEKLGVPAYMVDSPDQIDPVWVEGKRRIGVTAGASAPEVLAQAVIARLRELGVRNVRALDGIEENIAFPLPRGLGLPA | not soluble
MVKKEFHLTHTFKNVSKLEDGKTLYGPEEEHFNIPWQLSFCRKEEFVGVFLRCLRPTDGIVPWEINADCILKLTSSAGKCLSHSSTYIFQSIGGFGRRKFVSWDTLVKDHLVNDSIIMEATVMITKMTGISKKKLRSFEKSEEQFSDVVLAVEDKKFFVLRKFLASHSSYFKSLLLGTFAEADKSEIKHEAINSIDFQNFLEVLYGEPVIDDDDVEGILHLAHMYDVPVAIRKCEEFLIEKSEKSMRDQLEIAKKYQLDNLKKSCLSKVNTVEEIKAALMCDLADMDPTVVAALFRKSLALL | not soluble
MAEAATPGTTATTSGAGAAAATAAAASPTPIPTVTAPSLGAGGGGGGSDGSGGGWTKQVTCRYFMHGVCKEGDNCRYSHDLSDSPYSVVCKYFQRGYCIYGDRCRYEHSKPLKQEEATATELTTKSSLAASSSLSSIVGPLVEMNTGEAESRNSNFATVGAGSEDWVNAIEFVPGQPYCGRTAPSCTEAPLQGSVTKEESEKEQTAVETKKQLCPYAAVGECRYGENCVYLHGDSCDMCGLQLLHPMDAAQRSQHIKSCIEAHEKDMELSFAVQRSKDMVCGICMEVVYEKANPSERRFGILSNCNHTYCLKCIRKWRSAKQFESKIIKSCPECRITSNFVIPSEYWVEEKEEKQKLILKYKEAMSNKACRYFDEGRGSCPFGGNCFYKHAYPDGRREEPQRQKVGTSSRYRAQRRNHFWELIEERENSNPFDNDEEEVVTFELGEMLLMLLAAGGDDELTDSEDEWDLFHDELEDFYDLDL | soluble
MATNLKSIAKLQKPIQYDKVIEVDRIFADPAFIEQHRQRILASFKDAKESALYHELTHIVIKDNLFSAAMNEIVSYFEFQINPEELKNVVEGLKRDVVKDADEKTIQSIAEKIIKKALVFNFLQKEWKVEVSDDIVKRVISLYYEKTNQNVREYLDDKQKFEGIRTALIEERMVLETINHFKFHFNLTGQLPS | soluble
MAHHHHHHMSSESYAIGQEELVYDRMFRVMRTVGEMMRDRKYQVPSSIIPETVGQFCEQYVDREGRRIYRERMTVPCERVGGTHRSRAMVFFASELGMEGMKGYCQTAMDANCERVIIVTHGKVNATVKRYVDCINRSGTGQKVQLFDEDDLVVNITHHELVPKHTQLEDEEVKEMLEAHSLELNMLPRILSTDPVAAYLGLERGRVVRIERKSVSAGFYVTYRQVV | not soluble
MGSDKIHHHHHHMFKPWVGDDWGHQDNALQGIRLLVMGESHYCDPAKPELVGRCEPDVTSYVVRRYAIEESHRFFTGITQVISGKPKWQMSRDDVAAIWHSIAFYNYVPLYVGTQSRIRPGDKFALGRVPFEILLEQLRPRAILVCGYELWWWVLKGMPCGFNGDPASVPFQKIGPAIAARMKHPSSAYSSVRWRPTLLELLSRARALQQE | not soluble
MTESYDVVVVGGGPVGLATAWQVAERGHRVLVLERHTFFNENGGTSGAERHWRLQYTQEDLFRLTLETLPLWRALESRCERRLIHEIGSLWFGDTDVVTNEGQISGTAAMMDKLSVRYEWLKATDIERRFGFRGLPRDYEGFLQPDGGTIDVRGTLAALFTLAQAAGATLRAGETVTELVPDADGVSVTTDRGTYRAGKVVLACGPYTNDLLEPLGARLAYSVYEMAIAAYRQATPVTEAPFWFAFQQPTPQDTNLFFGFGHNPWAPGEFVRCGPDFEVDPLDHPSAATGVADRRQMDRLSGWLRDHLPTVDPDPVRTSTCLAVLPTDPERQFFLGTARDLMTHGEKLVVYGAGWAFKFVPLFGRICADLAVEDSTAYDISRLAPQSALLEHHHHHH | soluble
GLGGFTRTRNKGKSNVIDMIQKYIESKGMPIENWDITVGYCTNLEEAEKYRDDVEAQLGVKLLERREDFKTRISIISGCHTGPYALGIACIPKYTTIRL | not soluble
MGSDKIHHHHHHMRLVQYRMPDGSRRVGRVSDDDNHLHPLDKTGSVLELAEAAIAEDMSIASLVEKRTAAATIDYDALLRNGRVLAPVDHPEPARFLVTGTGLTHTGSAAARNQMHVLTHGDGAEESDSLKIFRMGLEGGKPGAGKIGIQPEWFFKGVGTCVVPPGAPLPMPAFAKAGAEEAEIVGLYLNGPDGHPYRIGYALGNEYSDHVTEGENYLYLAHSKLRSCSIGPELLIGDLPEEVRGHSRILRDGTVIWEQEFLSGEAHMSHSIANLEHFHFRYPMHRRAGDLHAYFFGAAVMSYASGIKTASGDEYEIQAQAFGKPLRNRMVSVPDEGLVTVTPL | not soluble
LRVRKAIIPAAGLGTRFLPATKAQPKEMLPIVDKPTIQYIVEEAIKSGIEDIIIISGRSKRAIEDHFDKSYELEQELEKKGNHDLLKLVQDISNLANIHYIRQKEAKGLGHAIYCAKSFIGNEPFAVLLGDDIVDSEVPCIKQLMDVYDKYRTTVLGVQKVPEDQVSKYGIVGGEIVSDRVYKVKDLVEKPDTASAPSNIAILGRYIITPRIFDYLENAKPGKGGEIQLTDALRELMGEEEMYAYDFIGKRYDVGNKLGFLQATVEFALARDDLKEEFEAYLKEIICKL | soluble
MGSDKIHHHHHHMRRRVPLNSVRAFEAAARRMSLVQASDELCVTPTAVSHQIRQLEDFLQTKLFLRRSSRLELTPESRACLAKLTEALDIIDDAIAALHKPMDMPERLVVGASASVGSLWLMPRLRNFYRTAPEIDISLTTFIERSAIETDTSDVWICNWHTNLDRRVELLLEEDIIPVCSPQMAEEFGELSFDSLRELPLVHVDRAKASINGQYPDWDRYLREYGISRNDIAKGPRFNQAGPAIEAAKAGMGALLGRSILIERALETGELIRLGDPYPIRNPYYLISPLQPASNAVKMFKDWIFAQAKTRTSTYVELPHKNRRGSDFRLTV | not soluble
